Data from patent KR20210154940A (dated 2021).
Values belong to the binder of their own block, whether it stands above or below them.

Experiments:
[1] = target: CEACAM1 N-도메인 (CEACAM1 N-domain, residues 35-141) (human) (UniProt P13688); assay: X-ray crystal structure of the Fab and N-domain complex
[2] = target: T1, hCEACAM1 (R&D Systems, CAT. NO. 2244-CM) (human, UniProt P13688 35-428); assay: not named in this sentence (BLI in Example 4); differs from the table cell
T1 construct: not shown: a His tag is implied by the use of Anti-His (His1K) biosensors
T1 sequence: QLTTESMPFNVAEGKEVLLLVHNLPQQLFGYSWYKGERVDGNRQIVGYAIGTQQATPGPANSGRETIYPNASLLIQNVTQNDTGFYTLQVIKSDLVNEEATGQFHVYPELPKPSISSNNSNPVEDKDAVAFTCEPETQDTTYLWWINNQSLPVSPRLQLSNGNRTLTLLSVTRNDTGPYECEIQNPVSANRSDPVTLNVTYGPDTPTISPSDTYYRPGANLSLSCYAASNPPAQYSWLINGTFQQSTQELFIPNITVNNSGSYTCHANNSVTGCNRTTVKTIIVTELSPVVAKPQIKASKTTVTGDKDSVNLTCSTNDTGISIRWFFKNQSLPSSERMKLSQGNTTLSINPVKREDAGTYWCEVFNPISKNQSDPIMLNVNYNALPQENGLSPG

[3] = target: T1, hCEACAM1 (R&D Systems, CAT. NO. 2244-CM); assay: BLI (Octet QKe); sentence that introduces Table 5, differs from the table cell
[4] = target: T1, hCEACAM1 (R&D Systems, CAT. NO. 2244-CM); assay: BLI (Octet QKe); Anti-His (His1K) biosensors, hCEACAM1 (R&D 2244-CM), antibody at 6.25-400 nM

항원-항체 결합의 전체 표면적 [1]: 792 Å2
B1: 항-CEACAM1 항체의 Fab (Fab of the anti-CEACAM1 antibody, papain fragment of the IgG1-type antibody) (Fab, V domains shown)
VH: EVQLLESGGGLVQPGGSLRLSCAASGFTFSNYAMSWVRQAPGKGLEWVSVISHGGGSIYYADSVKGRLTISRDNSKNTLYLQMNSLRAEDTAVYYCARDPTKGYAPTFDYWGQGTLVTVSS
VL: QSVLTQPPSASGTPGQRVTISCSGSSSNIGNNYVSWYQQLPGTAPKLLIYADSRRPSGVPDRFSGSKSGTSASLAISGLRSEDEADYYCGAWDLSLNGYVFGGGTKLTVLG

Kd [2]: 3.36 nM
Kd [3]: 3.9 nM
Kd [4]: 3.39 nM
koff [4]: 0.000567 s⁻¹
kon [4]: 163000 M⁻¹ s⁻¹
B2: 항-CEACAM1 항체 (anti-CEACAM1 antibody, IgG4 type) (antibody, V domains shown)
VH: B1 VH
VL: B1 VL
notes: also called 일 실시예의 항-CEACAM1 항체
